Assay results: PMC4351158 (Structure (London, England : 1993), 2015)

What follows are molecules tested on periplasmic domain of RseA (assay: Cleavage of 35S-labeled RseA periplasmic domain by DegS variants). Settings: H198P background; compared to H198P.
Assay type: biochemical, E. coli

| Molecule | YYF-stimulated cleavage activity, in words |
| --- | --- |
| H198P/P229A (protein, UniProt P0AEE3 1-355, looked up, variant H198P P229A) Serine endoprotease DegS: MFVKLLRSVAIGLIVGAILLVAMPSLRSLNPLSTPQFDSTDETPASYNLAVRRAAPAVVNVYNRGLNTNSHNQLEIRTLGSGVIMDQRGYIITNKHVINDADQIIVALQDGRVFEALLVGSDSLTDLAVLKINATGGLPTIPINARRVPHIGDVVLAIGNPYNLGQTITQGIISATGRIGLNPTGRQNFLQTDASINPGNSGGALVNSLGELMGINTLSFDKSNDGETAEGIGFAIPFQLATKIMDKLIRDGRVIRGYIGIGGREIAPLHAQGGGIDQLQGIVVNEVSPDGPAANAGIQVNDLIISVDNKPAISALETMDQVAEIRPGSVIPVVVMRDDKQLTLQVTIQEYPATN | more active than H198P |

Same assay, conditions: H198P background; with YYF; % of H198P parent

| Molecule | YYF-stimulated cleavage activity relative to H198P parental enzyme |
| --- | --- |
| I179A/H198P (protein, UniProt P0AEE3 1-355, looked up, variant I179A H198P) Serine endoprotease DegS: MFVKLLRSVAIGLIVGAILLVAMPSLRSLNPLSTPQFDSTDETPASYNLAVRRAAPAVVNVYNRGLNTNSHNQLEIRTLGSGVIMDQRGYIITNKHVINDADQIIVALQDGRVFEALLVGSDSLTDLAVLKINATGGLPTIPINARRVPHIGDVVLAIGNPYNLGQTITQGIISATGRAGLNPTGRQNFLQTDASINPGNSGGALVNSLGELMGINTLSFDKSNDGETPEGIGFAIPFQLATKIMDKLIRDGRVIRGYIGIGGREIAPLHAQGGGIDQLQGIVVNEVSPDGPAANAGIQVNDLIISVDNKPAISALETMDQVAEIRPGSVIPVVVMRDDKQLTLQVTIQEYPATN | ≥ 65% |
| Q187A/H198P (protein, UniProt P0AEE3 1-355, looked up, variant Q187A H198P) Serine endoprotease DegS: MFVKLLRSVAIGLIVGAILLVAMPSLRSLNPLSTPQFDSTDETPASYNLAVRRAAPAVVNVYNRGLNTNSHNQLEIRTLGSGVIMDQRGYIITNKHVINDADQIIVALQDGRVFEALLVGSDSLTDLAVLKINATGGLPTIPINARRVPHIGDVVLAIGNPYNLGQTITQGIISATGRIGLNPTGRANFLQTDASINPGNSGGALVNSLGELMGINTLSFDKSNDGETPEGIGFAIPFQLATKIMDKLIRDGRVIRGYIGIGGREIAPLHAQGGGIDQLQGIVVNEVSPDGPAANAGIQVNDLIISVDNKPAISALETMDQVAEIRPGSVIPVVVMRDDKQLTLQVTIQEYPATN | ≥ 65% |
| D221A/H198P (protein, UniProt P0AEE3 1-355, looked up, variant D221A H198P) Serine endoprotease DegS: MFVKLLRSVAIGLIVGAILLVAMPSLRSLNPLSTPQFDSTDETPASYNLAVRRAAPAVVNVYNRGLNTNSHNQLEIRTLGSGVIMDQRGYIITNKHVINDADQIIVALQDGRVFEALLVGSDSLTDLAVLKINATGGLPTIPINARRVPHIGDVVLAIGNPYNLGQTITQGIISATGRIGLNPTGRQNFLQTDASINPGNSGGALVNSLGELMGINTLSFAKSNDGETPEGIGFAIPFQLATKIMDKLIRDGRVIRGYIGIGGREIAPLHAQGGGIDQLQGIVVNEVSPDGPAANAGIQVNDLIISVDNKPAISALETMDQVAEIRPGSVIPVVVMRDDKQLTLQVTIQEYPATN | ≥ 65% |

Same assay, conditions: WT background; compared to wild-type DegS

| Molecule | YYF-stimulated cleavage activity, in words |
| --- | --- |
| Q187A: DegS variant Q187A (protein, left off: His6, N-terminal, state not stated) RSLNPLSTPQFDSTDETPASYNLAVRRAAPAVVNVYNRGLNTNSHNQLEIRTLGSGVIMDQRGYIITNKHVINDADQIIVALQDGRVFEALLVGSDSLTDLAVLKINATGGLPTIPINARRVPHIGDVVLAIGNPYNLGQTITQGIISATGRIGLNPTGRANFLQTDASINHGNSGGALVNSLGELMGINTLSFDKSNDGETPEGIGFAIPFQLATKIMDKLIRDGRVIRGYIGIGGREIAPLHAQGGGIDQLQGIVVNEVSPDGPAANAGIQVNDLIISVDNKPAISALETMDQVAEIRPGSVIPVVVMRDDKQLTLQVTIQEYPATN | reduced YYF-stimulated cleavage activity compared to wild-type DegS |
| D221A: DegS variant D221A (protein, left off: His6, N-terminal, state not stated) RSLNPLSTPQFDSTDETPASYNLAVRRAAPAVVNVYNRGLNTNSHNQLEIRTLGSGVIMDQRGYIITNKHVINDADQIIVALQDGRVFEALLVGSDSLTDLAVLKINATGGLPTIPINARRVPHIGDVVLAIGNPYNLGQTITQGIISATGRIGLNPTGRQNFLQTDASINHGNSGGALVNSLGELMGINTLSFAKSNDGETPEGIGFAIPFQLATKIMDKLIRDGRVIRGYIGIGGREIAPLHAQGGGIDQLQGIVVNEVSPDGPAANAGIQVNDLIISVDNKPAISALETMDQVAEIRPGSVIPVVVMRDDKQLTLQVTIQEYPATN | reduced YYF-stimulated cleavage activity compared to wild-type DegS |
| P229A: DegS variant P229A (protein, left off: His6, N-terminal, state not stated) RSLNPLSTPQFDSTDETPASYNLAVRRAAPAVVNVYNRGLNTNSHNQLEIRTLGSGVIMDQRGYIITNKHVINDADQIIVALQDGRVFEALLVGSDSLTDLAVLKINATGGLPTIPINARRVPHIGDVVLAIGNPYNLGQTITQGIISATGRIGLNPTGRQNFLQTDASINHGNSGGALVNSLGELMGINTLSFDKSNDGETAEGIGFAIPFQLATKIMDKLIRDGRVIRGYIGIGGREIAPLHAQGGGIDQLQGIVVNEVSPDGPAANAGIQVNDLIISVDNKPAISALETMDQVAEIRPGSVIPVVVMRDDKQLTLQVTIQEYPATN | more active than wild-type DegS |
| I179A: DegS variant I179A (protein, left off: His6, N-terminal, state not stated) RSLNPLSTPQFDSTDETPASYNLAVRRAAPAVVNVYNRGLNTNSHNQLEIRTLGSGVIMDQRGYIITNKHVINDADQIIVALQDGRVFEALLVGSDSLTDLAVLKINATGGLPTIPINARRVPHIGDVVLAIGNPYNLGQTITQGIISATGRAGLNPTGRQNFLQTDASINHGNSGGALVNSLGELMGINTLSFDKSNDGETPEGIGFAIPFQLATKIMDKLIRDGRVIRGYIGIGGREIAPLHAQGGGIDQLQGIVVNEVSPDGPAANAGIQVNDLIISVDNKPAISALETMDQVAEIRPGSVIPVVVMRDDKQLTLQVTIQEYPATN | reduced YYF-stimulated cleavage activity compared to wild-type DegS |

Same assay, conditions: WT background; with YYF; % of wild-type activity

| Molecule | YYF-stimulated cleavage activity relative to wild type |
| --- | --- |
| Q191A: DegS variant Q191A (protein, left off: His6, N-terminal, state not stated) RSLNPLSTPQFDSTDETPASYNLAVRRAAPAVVNVYNRGLNTNSHNQLEIRTLGSGVIMDQRGYIITNKHVINDADQIIVALQDGRVFEALLVGSDSLTDLAVLKINATGGLPTIPINARRVPHIGDVVLAIGNPYNLGQTITQGIISATGRIGLNPTGRQNFLATDASINHGNSGGALVNSLGELMGINTLSFDKSNDGETPEGIGFAIPFQLATKIMDKLIRDGRVIRGYIGIGGREIAPLHAQGGGIDQLQGIVVNEVSPDGPAANAGIQVNDLIISVDNKPAISALETMDQVAEIRPGSVIPVVVMRDDKQLTLQVTIQEYPATN | less than 2% |
| F234A: DegS variant F234A (protein, left off: His6, N-terminal, state not stated) RSLNPLSTPQFDSTDETPASYNLAVRRAAPAVVNVYNRGLNTNSHNQLEIRTLGSGVIMDQRGYIITNKHVINDADQIIVALQDGRVFEALLVGSDSLTDLAVLKINATGGLPTIPINARRVPHIGDVVLAIGNPYNLGQTITQGIISATGRIGLNPTGRQNFLQTDASINHGNSGGALVNSLGELMGINTLSFDKSNDGETPEGIGAAIPFQLATKIMDKLIRDGRVIRGYIGIGGREIAPLHAQGGGIDQLQGIVVNEVSPDGPAANAGIQVNDLIISVDNKPAISALETMDQVAEIRPGSVIPVVVMRDDKQLTLQVTIQEYPATN | less than 2% |
| E230A: DegS variant E230A (protein, left off: His6, N-terminal, state not stated) RSLNPLSTPQFDSTDETPASYNLAVRRAAPAVVNVYNRGLNTNSHNQLEIRTLGSGVIMDQRGYIITNKHVINDADQIIVALQDGRVFEALLVGSDSLTDLAVLKINATGGLPTIPINARRVPHIGDVVLAIGNPYNLGQTITQGIISATGRIGLNPTGRQNFLQTDASINHGNSGGALVNSLGELMGINTLSFDKSNDGETPAGIGFAIPFQLATKIMDKLIRDGRVIRGYIGIGGREIAPLHAQGGGIDQLQGIVVNEVSPDGPAANAGIQVNDLIISVDNKPAISALETMDQVAEIRPGSVIPVVVMRDDKQLTLQVTIQEYPATN | ~ 10% |
| N197A: DegS variant N197A (protein, left off: His6, N-terminal, state not stated) RSLNPLSTPQFDSTDETPASYNLAVRRAAPAVVNVYNRGLNTNSHNQLEIRTLGSGVIMDQRGYIITNKHVINDADQIIVALQDGRVFEALLVGSDSLTDLAVLKINATGGLPTIPINARRVPHIGDVVLAIGNPYNLGQTITQGIISATGRIGLNPTGRQNFLQTDASIAHGNSGGALVNSLGELMGINTLSFDKSNDGETPEGIGFAIPFQLATKIMDKLIRDGRVIRGYIGIGGREIAPLHAQGGGIDQLQGIVVNEVSPDGPAANAGIQVNDLIISVDNKPAISALETMDQVAEIRPGSVIPVVVMRDDKQLTLQVTIQEYPATN | less than 2% |
| I232A: DegS variant I232A (protein, left off: His6, N-terminal, state not stated) RSLNPLSTPQFDSTDETPASYNLAVRRAAPAVVNVYNRGLNTNSHNQLEIRTLGSGVIMDQRGYIITNKHVINDADQIIVALQDGRVFEALLVGSDSLTDLAVLKINATGGLPTIPINARRVPHIGDVVLAIGNPYNLGQTITQGIISATGRIGLNPTGRQNFLQTDASINHGNSGGALVNSLGELMGINTLSFDKSNDGETPEGAGFAIPFQLATKIMDKLIRDGRVIRGYIGIGGREIAPLHAQGGGIDQLQGIVVNEVSPDGPAANAGIQVNDLIISVDNKPAISALETMDQVAEIRPGSVIPVVVMRDDKQLTLQVTIQEYPATN | less than 2% |
